The target of test [1] is T1, L145K mutated biotinylated and Myc tagged human CD28 stalk region dimeric peptide (human, C-terminal biotin; Cysteine at position 141 (CD28 numbering) forms the disulfide linkage of the dimer).
T1 construct: also called L145K CD28 stalk region dimeric peptide; mutant peptide
T1 peptide: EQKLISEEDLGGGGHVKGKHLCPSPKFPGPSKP
In words: direct ELISA, peptide on neutravidin plate, anti His tag-HRP. The protocol: (§1) Biotin conjugated wild-type or L145K CD28 stalk region dimeric peptides were immobilized on neutravidin coated ELISA maxi-sorb plates. A dilution series of VHH clones (0.2-5 μg/mL) and an irrelevant VHH clone (top left chart) was performed and detection of bound VHH was done with anti His tag-HRP conjugated antibody and development was done with TMB.
A general note: In an ELISA, binding on a coated surface is turned into a signal by an enzyme label.

Test [2] addresses T2, membranal human CD28 (human, UniProt P10747 19-220).
T2 construct: also called mCD28; HEK cells overexpressing human CD28
Nature of the test: FACS, FITC conjugated VHH on HEK cells overexpressing CD28. On the technique in general: In flow cytometry, cells or beads pass a laser one at a time.

The target of test [3] is T3, c-Myc conjugated and biotinylated human CD28 stalk region dimeric peptide (wild-type) (human, C-terminal biotin; Cysteine at position 141 (CD28 numbering) forms the disulfide linkage of the dimer).
T3 construct: the Methods describe only this biotinylated dimeric peptide design, so it is used here; also called Biotin conjugated CD28 stalk region dimeric peptide; WT peptide
T3 peptide: T1 peptide with K26L
Nature of the test: phage library screen by ELISA and flow cytometry against recombinant CD28 extracellular domain and the dimeric stalk region peptide.

The target of test [4] is T3, c-Myc conjugated and biotinylated human …. In words: direct ELISA, WT stalk dimeric peptide on neutravidin plate, VHH 0.2-5 µg/mL. The protocol:
as §1

Positions count from the first letter of the chain named.

B1: VHH clone 2A1 (VHH)
VHH: EVQLVESGGGLVQAGESLRLSCAASGSIASINAMGWYRQAPGSQRELVAAISGGGDTYYADSVKGRFTISRDNAKTTVYLQMNSLRPEDTAVYYCVVDLYGSDYWDWGQGTQVTVSS
modifications: FITC conjugated in the FACS assay of FIG. 6
notes: Produced recombinantly in CHO cells; from a naive llama VHH phage library; The printed text reads 'EVOLVESGGG' (probably Q); also called VHH #2A1
On to B1, for which the figures for the binding result in test [1], in test [2] and in test [3] were “no binding (tested: 0.2-5 µg/mL)”, “binds” and “binds”, respectively.

B2: VHH clone 4A4 (VHH)
VHH: EVQLVESGGGLVQAGGSLRLSCAASGSLFSINAMAWYRQAPGKQRELVAAITSSGSTNYANSVKGRFTVSRDNAKNTMYLQMNSLKPEDTAVYYCVVDEYGSDYWIWGQGTQVTVSS
notes: Produced recombinantly in CHO cells
Take B2: the binding result is reported as “no binding (tested: 0.2-5 µg/mL)” in test [1] and “binds” in test [4].

B3: VHH clone 4A1 (VHH)
VHH: QVQLVESGGGLVQAGGSLRLSCAASGSIFSINAMGWYRQAPGKQRERVAAITSGGSTNYADSVKGRFTISRDNAKNTVYLQMNNLEPRDAGVYYCVVDLYGEDYWIWGQGTQVTVSS
notes: as for B2
As to B3, the figures for the binding result in test [1] and in test [4] were “no binding (tested: 0.2-5 µg/mL)” and “binds”, respectively.

Values taken from patent US20260209355A1 (BIOND BIOLOGICS, published 2026).
